Experimental data reported in patent US11278600B2, “Human alpha-galactosidase variants” (Codexis, Inc., priority 2014, dated 2022).
Positions count from the first letter of the chain named.

How the values were obtained:
Assay type in all cases: biochemical
[1] = HTP-analysis of supernatants pretreated with base (MUGal hydrolysis); conditions: activity of the variant/activity of Rd4BB (SEQ ID NO: 15); challenge at pH 9.65
How it was run: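 Supernatants from INVSc1 yeast expressing GLA variants (SD-Ura, 66-84 h, 30° C) were mixed with McIlvaine buffer pH 7.0-8.2 or 200 mM sodium bicarbonate pH 9.1-9.7 and held 1-18 h at 37° C. Residual activity was then measured on MUGal at pH 4.8/4.3, 37° C, 30-180 min, by fluorescence (Ex 355/Em 448 nm).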

[2] = HTP-analysis of supernatants pretreated with acid (MUGal hydrolysis); conditions: activity of the variant/activity of Rd4BB (SEQ ID NO: 15); challenge at pH 3.7
How it was run: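 Supernatants from INVSc1 yeast secreting GLA variants were challenged at 37° C. for 1-3 h in McIlvaine buffer at pH 3.3-4.3. Residual activity was then measured on 4 mM MUGal substrate stock at pH 4.8 with citrate buffer pH 4.3, over 30-180 min at 37° C. Reactions were quenched with sodium carbonate and read by fluorescence (Ex 355/Em 448 nm).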

[3] = HTP-analysis of yeast culture supernatants, no challenge (MUGal hydrolysis); conditions: activity of the variant/activity of Rd4BB (SEQ ID NO: 15)
How it was run: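 GLA variants were expressed in INVSc1 yeast grown in SD-Ura broth with glucose at 30° C., and culture supernatants were collected after 66-84 h. Supernatant was mixed with McIlvaine buffer pH 4.8 and MUGal (2 mM stock) in 50 mM citrate, 200 mM KCl, pH 4.6, incubated at 37° C. for 30-180 minutes, then quenched with sodium carbonate.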

B1: 447 (protein)
chain: LDNGLARTPTMGWLHWERFMCNLDCQEEPDSCISEKLFMEMAERMVSEGWKDAGYEYLCIDDCWMAPQRDSEGRLQADPQRFPHGIRQLANYVHSKGLKLGIYADVGNKTCAGFPGSFGYYDIDAQTFADWGVDLLKFDGCYCDSLENLADGYKHMSLALNRTGRSIVYSCEWPLYMWPFQKPNYTEIRQYCNHWRNFADIDDSWKSIKSILDWTSRNQERIVDVAGPGGWNDPDMLVIGNFGLSWDQQVTQMALWAIMAAPWFMSNDLRHISPQAKALLQDKDVIAINQDPLGKQGYQLRKGDNFEVWERPLSGDAWAVAIINRQEIGGPRSYTIPVASLGKGVACNPACFITQLLPVKRQLGFYNWTSRLKSHINPTGTVLLQLENTMQMSLKDLL
modifications: Synthetic Polypeptide sequence of Variant No. 447 of mature Human GLA
Relative Activity of GLA Variants After Challenge at pH 9.65 [1]: − (<0.5 relative activity over Rd4BB (SEQ ID NO: 15))
Relative Activity of GLA Variants After Challenge at pH 3.7 [2]: − (<0.5 relative activity over Rd4BB (SEQ ID NO: 15))
Relative Activity of GLA Variants After No Challenge (NC) [3]: + (0.5 to 1.5 relative activity over Rd4BB (SEQ ID NO: 15))

B2: 457 (protein)
chain: B1 chain with W263L, M392A
modifications: Synthetic Polypeptide sequence of Variant No. 457 of mature Human GLA
Relative Activity of GLA Variants After Challenge at pH 9.65 [1]: + (0.5 to 1.5 relative activity over Rd4BB (SEQ ID NO: 15))
Relative Activity of GLA Variants After Challenge at pH 3.7 [2]: + (0.5 to 1.5 relative activity over Rd4BB (SEQ ID NO: 15))
Relative Activity of GLA Variants After No Challenge (NC) [3]: + (0.5 to 1.5 relative activity over Rd4BB (SEQ ID NO: 15))

B3: 448 (protein)
chain: B1 chain with W263L, R270Q
modifications: Synthetic Polypeptide sequence of Variant No. 448 of mature Human GLA
Relative Activity of GLA Variants After Challenge at pH 9.65 [1]: − (<0.5 relative activity over Rd4BB (SEQ ID NO: 15))
Relative Activity of GLA Variants After Challenge at pH 3.7 [2]: − (<0.5 relative activity over Rd4BB (SEQ ID NO: 15))
Relative Activity of GLA Variants After No Challenge (NC) [3]: + (0.5 to 1.5 relative activity over Rd4BB (SEQ ID NO: 15))

B4: 450 (protein)
chain: B1 chain with I258M, W263L
modifications: Synthetic Polypeptide sequence of Variant No. 450 of mature Human GLA
Relative Activity of GLA Variants After Challenge at pH 9.65 [1]: − (<0.5 relative activity over Rd4BB (SEQ ID NO: 15))
Relative Activity of GLA Variants After Challenge at pH 3.7 [2]: ++ (>1.5 to 2.5 relative activity over Rd4BB (SEQ ID NO: 15))
Relative Activity of GLA Variants After No Challenge (NC) [3]: + (0.5 to 1.5 relative activity over Rd4BB (SEQ ID NO: 15))

B5: 461 (protein)
chain: B1 chain with W263L, M392Q
modifications: Synthetic Polypeptide sequence of Variant No. 461 of mature Human GLA
Relative Activity of GLA Variants After Challenge at pH 9.65 [1]: + (0.5 to 1.5 relative activity over Rd4BB (SEQ ID NO: 15))
Relative Activity of GLA Variants After Challenge at pH 3.7 [2]: + (0.5 to 1.5 relative activity over Rd4BB (SEQ ID NO: 15))
Relative Activity of GLA Variants After No Challenge (NC) [3]: + (0.5 to 1.5 relative activity over Rd4BB (SEQ ID NO: 15))

B6: 449 (protein)
chain: B1 chain with L255T, W263L
modifications: Synthetic Polypeptide sequence of Variant No. 449 of mature Human GLA
Relative Activity of GLA Variants After Challenge at pH 9.65 [1]: − (<0.5 relative activity over Rd4BB (SEQ ID NO: 15))
Relative Activity of GLA Variants After Challenge at pH 3.7 [2]: ++ (>1.5 to 2.5 relative activity over Rd4BB (SEQ ID NO: 15))
Relative Activity of GLA Variants After No Challenge (NC) [3]: + (0.5 to 1.5 relative activity over Rd4BB (SEQ ID NO: 15))

B7: 455 (protein)
chain: B1 chain with W263L, M392D
modifications: Synthetic Polypeptide sequence of Variant No. 455 of mature Human GLA
Relative Activity of GLA Variants After Challenge at pH 9.65 [1]: + (0.5 to 1.5 relative activity over Rd4BB (SEQ ID NO: 15))
Relative Activity of GLA Variants After Challenge at pH 3.7 [2]: + (0.5 to 1.5 relative activity over Rd4BB (SEQ ID NO: 15))
Relative Activity of GLA Variants After No Challenge (NC) [3]: + (0.5 to 1.5 relative activity over Rd4BB (SEQ ID NO: 15))

B8: 460 (protein)
chain: B1 chain with W263L, L386T
modifications: Synthetic Polypeptide sequence of Variant No. 460 of mature Human GLA
Relative Activity of GLA Variants After Challenge at pH 9.65 [1]: + (0.5 to 1.5 relative activity over Rd4BB (SEQ ID NO: 15))
Relative Activity of GLA Variants After Challenge at pH 3.7 [2]: + (0.5 to 1.5 relative activity over Rd4BB (SEQ ID NO: 15))
Relative Activity of GLA Variants After No Challenge (NC) [3]: + (0.5 to 1.5 relative activity over Rd4BB (SEQ ID NO: 15))

B9: 366 (protein)
chain: B1 chain with S47V, W263L
modifications: Synthetic Polypeptide sequence of Variant No. 366 of mature Human GLA
Relative Activity of GLA Variants After Challenge at pH 9.65 [1]: + (0.5 to 1.5 relative activity over Rd4BB (SEQ ID NO: 15))
Relative Activity of GLA Variants After Challenge at pH 3.7 [2]: + (0.5 to 1.5 relative activity over Rd4BB (SEQ ID NO: 15))
Relative Activity of GLA Variants After No Challenge (NC) [3]: + (0.5 to 1.5 relative activity over Rd4BB (SEQ ID NO: 15))

B10: 456 (protein)
chain: B1 chain with W263L, T389M
modifications: Synthetic Polypeptide sequence of Variant No. 456 of mature Human GLA
Relative Activity of GLA Variants After Challenge at pH 9.65 [1]: + (0.5 to 1.5 relative activity over Rd4BB (SEQ ID NO: 15))
Relative Activity of GLA Variants After Challenge at pH 3.7 [2]: + (0.5 to 1.5 relative activity over Rd4BB (SEQ ID NO: 15))
Relative Activity of GLA Variants After No Challenge (NC) [3]: + (0.5 to 1.5 relative activity over Rd4BB (SEQ ID NO: 15))

B11: 451 (protein)
chain: B1 chain with M259V, W263L
modifications: Synthetic Polypeptide sequence of Variant No. 451 of mature Human GLA
Relative Activity of GLA Variants After Challenge at pH 9.65 [1]: − (<0.5 relative activity over Rd4BB (SEQ ID NO: 15))
Relative Activity of GLA Variants After Challenge at pH 3.7 [2]: ++ (>1.5 to 2.5 relative activity over Rd4BB (SEQ ID NO: 15))
Relative Activity of GLA Variants After No Challenge (NC) [3]: + (0.5 to 1.5 relative activity over Rd4BB (SEQ ID NO: 15))

B12: 452 (protein)
chain: B1 chain with W263L, H271R
modifications: Synthetic Polypeptide sequence of Variant No. 452 of mature Human GLA
Relative Activity of GLA Variants After Challenge at pH 9.65 [1]: + (0.5 to 1.5 relative activity over Rd4BB (SEQ ID NO: 15))
Relative Activity of GLA Variants After Challenge at pH 3.7 [2]: ++ (>1.5 to 2.5 relative activity over Rd4BB (SEQ ID NO: 15))
Relative Activity of GLA Variants After No Challenge (NC) [3]: + (0.5 to 1.5 relative activity over Rd4BB (SEQ ID NO: 15))

B13: 453 (protein)
chain: B1 chain with W263L, R270L
modifications: Synthetic Polypeptide sequence of Variant No. 453 of mature Human GLA
Relative Activity of GLA Variants After Challenge at pH 9.65 [1]: − (<0.5 relative activity over Rd4BB (SEQ ID NO: 15))
Relative Activity of GLA Variants After Challenge at pH 3.7 [2]: − (<0.5 relative activity over Rd4BB (SEQ ID NO: 15))
Relative Activity of GLA Variants After No Challenge (NC) [3]: + (0.5 to 1.5 relative activity over Rd4BB (SEQ ID NO: 15))

B14: 367 (protein)
chain: B1 chain with M39R, W263L
modifications: Synthetic Polypeptide sequence of Variant No. 367 of mature Human GLA
Relative Activity of GLA Variants After Challenge at pH 9.65 [1]: − (<0.5 relative activity over Rd4BB (SEQ ID NO: 15))
Relative Activity of GLA Variants After Challenge at pH 3.7 [2]: + (0.5 to 1.5 relative activity over Rd4BB (SEQ ID NO: 15))
Relative Activity of GLA Variants After No Challenge (NC) [3]: + (0.5 to 1.5 relative activity over Rd4BB (SEQ ID NO: 15))

B15: 454 (protein)
chain: B1 chain with W263L, M390P
modifications: Synthetic Polypeptide sequence of Variant No. 454 of mature Human GLA
Relative Activity of GLA Variants After Challenge at pH 9.65 [1]: + (0.5 to 1.5 relative activity over Rd4BB (SEQ ID NO: 15))
Relative Activity of GLA Variants After Challenge at pH 3.7 [2]: ++ (>1.5 to 2.5 relative activity over Rd4BB (SEQ ID NO: 15))
Relative Activity of GLA Variants After No Challenge (NC) [3]: + (0.5 to 1.5 relative activity over Rd4BB (SEQ ID NO: 15))

B16: 459 (protein)
chain: B1 chain with W263L, M390H
modifications: Synthetic Polypeptide sequence of Variant No. 459 of mature Human GLA
Relative Activity of GLA Variants After Challenge at pH 9.65 [1]: + (0.5 to 1.5 relative activity over Rd4BB (SEQ ID NO: 15))
Relative Activity of GLA Variants After Challenge at pH 3.7 [2]: ++ (>1.5 to 2.5 relative activity over Rd4BB (SEQ ID NO: 15))
Relative Activity of GLA Variants After No Challenge (NC) [3]: + (0.5 to 1.5 relative activity over Rd4BB (SEQ ID NO: 15))
